Source: US20160000936A1
pIC50: −log10 of the molar value.

Target: murine IL-17 (mouse) (UniProt Q62386)
Test: assay not described; table titled 'Source And Binding Information'

murine IL-17 (mouse), sequence (Q62386 26-158 limits assumed): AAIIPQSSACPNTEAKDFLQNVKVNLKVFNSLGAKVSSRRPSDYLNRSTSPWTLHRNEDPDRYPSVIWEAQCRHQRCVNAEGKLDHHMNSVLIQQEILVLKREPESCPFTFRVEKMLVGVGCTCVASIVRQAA

pIC50: 9.15
Substance: anti-murine IL-17 antibody MAB421
